{
  "source": "patent US7220576B2",
  "about": "“Methods and compositions for protein expression and purification” (Lifesensors, Inc., priority 2002, dated 2007)",
  "molecules": {"B1": {"name": "Hub1-GFP (protein)", "chain": "MGHHHHHHGSDSEVNQEAKPEVKPEVKPETHINLKVSDGSSEIFFKIKKTTPLRRLMEAFAKRQGKEMDSLRFLYDGIRIQADQAPEDLDMEDNDIIEAHREQIGG"}, "B2": {"name": "β-GUS: SUMO fusion of 65 KDa E. coli β-glucuronidase (SEQ ID NO: 23) (protein)", "chain": "MGHHHHHHGSDSEVNQEAKPEVKPEVKPETHINLKVSDGSSEIFFKIKKTTPLRRLMEAFAKRQGKEMDSLRFLYDGIRIQADQTPEDLDMEDNDIIEAHREQIGGMEFMLRPVETPTREIKKLDGLWAFSLDRENCGIDQRWWESALQESRAIAVPGSFNDQFADADIRNYAGNVWYQREVFIPKGWAGQRIVLRFDAVTHYGKVWVNNQEVMEHQGGYTPFEADVTPYVIAGKSVRITVCVNNELNWQTIPPGMVITDENGKKKQSYFHDFFNYAGIHRSVMLYTTPNTWVDDITVVTHVAQDCNHASVDWQVVANGDVSVELRDADQQVVATGQGTSGTLQVVNPHLWQPGEGYLYELCVTAKSQTECDIYPLRVGIRSVAVKGQQFLINHKPFYFTGFGRHEDADLRGKGFDNVLMVHDHALMDWIGANSYRTSHYPYAEEMLDWADEHGIVVIDETAAVGFNLSLGIGFEAGNKPKELYSEEAVNGETQQAHLQAIKELIARDKNHPSVVMWSIANEPDTRPQVHGNISPLAEATRKLDPTRPITCVNVMFCDAHTDTISDLFDVLCLNRYYGWYVQSGDLETAEKVLEKELLAWQEKLHQPIIITEYGVDTLAGLHSMYTDMWSEEYQCAWLDMYHRVFDRVSAVVGEQVWNFADFATSQGILRVGGNKKGIFTRDRKPKSAAFLLQKRWTGMNFGEKPQQGGKQ"}, "B3": {"name": "SUMO-LXR: human liver X receptor ligand binding domain as SUMO fusion (SEQ ID NO: 25) (protein)", "chain": "MGHHHHHHGSDSEVNQEAKPEVKPEVKPETHINLKVSDGSSEIFFKIKKTTPLRRLMEAFAKRQGKEMDSLRFLYDGIRIQADQTPEDLDMEDNDIIEAHREQIGGMSLWLGAPVPDIPPDSAVELWKPGAQDASSQAQGGSSCILREEARMPHSAGGTAGVGLEAAEPTALLTRAEPPSEPTEIRPQKRKKGPAPKMLGNELCSVCGDKASGFHYNVLSCEGCKGFFRRSVIKGAHYICHSGGHCPMDTYMRRKCQECRLRKCRQAGMREECVLSEEQIRLKKLKRQEEEQAHATSLPPRRSSPPQILPQLSPEQLGMIEKLVAAQQQCNRRSFSDRLRVTPWPMAPDPHSREARQQRFAHFTELAIVSVQEIVDFAKQLPGFLQLSREDQIALLKTSAIEVMLLETSRRYNPGSESITFLKDFSYNREDFAKAGLQVEFINPIFEFSRAMNELQLNDAEFALLIAISIFSADRPNVQDQLQVERLQHTYVEALHAYVSIHHPHDRLMFPRMLMKLVSLRTLSSVHSEQVFALRLQDKKLPPLLSEIWDVHE"}, "B4": {"name": "SUMO kinase: MAPKAP2 kinase expressed as a SUMO-fusion in E. coli (SEQ ID NO: 29) (protein)", "chain": "MGHHHHHHGSDSEVNQEAKPEVKPEVKPETHINLKVSDGSSEIFFKIKKTTPLRRLMEAFAKRQGKEMDSLRFLYDGIRIQADQTPEDLDMEDNDIIEAHREQIGGMQFHVKSGLQIKKNAIIDDYKVTSQVLGLGINGKVLQIFNKRTQEKFALKMLQDCPKARREVELHWRASQCPHIVRIVDVYENLYAGRKCLLIVMECLDGGELFSRIQDRGDQAFTEREASEIMKSIGEAIQYLHSINIAHRDVKPENLLYTSKRPNAILKLTDFGFAKETTSHNSLTTPCYTPYYVAPEVLGPEKYDKSCDMWSLGVIMYILLCGYPPFYSNHGLAISPGMKTRIRMGQYEFPNPEWSEVSEEVKMLIRNLLKTEPTQRMTITEFMNHPWIMQSTKVPQTPLHTSRVLKEDKERWEDVKEEMTSALATMRVDYEQIK"}, "B5": {"name": "Ulp1: C-terminal His-tagged yeast SUMO hydrolase/protease Ulp (403–621) expressed in E. coli (protein, UniProt Q02724 403-621, looked up, fragment)", "chain": "LVPELNEKDDDQVQKALASRENTQLMNRDNIEITVRDFKTLAPRRWLNDTIIEFFMKYIEKSTPNTVAFNSFFYTNLSERGYQGVRRWMKRKKTQIDKLDKIFTPINLNQSHWALGIIDLKKKTIGYVDSLSNGPNAMSFAILTDLQKYVMEESKHTIGEDFDLIHLDCPQQPNGYDCGIYVCMNTLYGSADAPLDFDYKDAIRMRRFIAHLILTDALK", "modifications": "C-terminal His tag", "notes": "C-terminal His-tagged yeast SUMO hydrolase/protease Ulp (403–621) expressed in E. coli"}},
  "key": {"[1]": {"system": "E. coli", "test": "GFP fluorescence in soluble fractions of E. coli", "type": "cell-based", "details": "37° C., approx. 0.1 mg soluble protein, Ex 485 nm/Em 510 nm", "protocol": "GFP fluorescence was measured in soluble fractions (approx. 0.1 mg of soluble protein in a final volume of 40 μl) using Fluoroscan Accent FL fluorometer (LabSystems) with Excitation 485 nm/Emission 510 nm filter set with the exposure set to 40 sec. The data are presented in Arbitrary Units (AU).\nThe design and construction of all the UBL E. coli expression vectors has been described above. The DNA sequences, accession numbers of the UBL-GFP fusion proteins, and translation frames are shown FIGS. 25–32. […] Un-fused GFP is generally poorly expressed in E. coli. […] Induced cells were broken by sonication and soluble proteins were analyzed on SDS-polyacrylamide gels. […] To determine if the fusion proteins were folded correctly, we determined the fluorescence properties of proteins in the soluble fraction."}, "[2]": {"system": "E. coli", "test": "Soluble versus insoluble fraction of fusion proteins expressed in E. coli", "type": "cell-based", "protocol": "E. coli were harvested by mild centrifugation and washed once with PBS buffer. Cells were resuspended in 4 ml of PBS and ruptured by several pulses of sonication. Unbroken cells were removed by mild centrifugation (5 min at 1500×g) and supernatants were sonicated again to ensure complete cell lysis. An aliquot (5 μl) was mixed with 2% SDS to ensure that no viscosity is detected owing to lysis of unbroken cells. After ensuring that no unbroken cells remained in the lysate, insoluble material consisting of cell walls, inclusion bodies and membrane fragments was sedimented by centrifugation (18,000×g for 10 min). The supernatant was considered “Soluble fraction”.\nThe pellets were washed from any remaining soluble proteins, lipids and peptidoglycan as follows. Pellets were resuspended in 600 μl of PBS and to the suspensions 600 μl of solution containing 3 M urea and 1% Tri ton X100 was added. The suspension was briefly vortexed and insoluble material was collected by centrifugation as above. The PBS/Urea/Triton wash was repeated two more times to ensure complete removal of soluble proteins. The washed pellets, designated as “insoluble fraction,” consisted primarily of inclusion bodies formed by over expressed proteins. Approximately 10 μg of protein from each fraction was resolved on 12% SDS-PAGE minigels and stained with Coomassie Brilliant Blue.\nHuman nuclear receptor proteins, such as steroid receptors, contain ligand-binding domains. These proteins have proven hard to express in soluble form in E. coli. […] The ligand-binding domain of LXR was expressed as SUMO fusion in Rosetta plysS cell at 20° C. or 37° C. and the pattern of soluble and insoluble protein was analyzed. […] Further proof that SUMO promotes solubility of previously insoluble proteins was gained by expressing MAPKAP2 kinase as a SUMO-fusion in E. coli. […] Numbers at the top of the gel, 0.1, 0.25 and 0.5 refer to the mM concentration of inducer IPTG, in the culture. The original induced culture (I), supernatant from lysed cells (S) and resuspended pellet (P) were analyzed on 12% SDS-PAGE. […] Although induction at 37° C. allows greater degree of expression, more than 50% of the kinase is still insoluble under these conditions. Cleavage of SUMO-MAPKKAP2 kinase by SUMO hydrolase is described in Example III. Also see FIG. 18."}, "[3]": {"target": "T1, SUMO hydrolase Ulp1 (Saccharomyces cerevisiae, UniProt Q02724)", "T1 construct": "C-terminal His-tagged SUMO hydrolase/protease Ulp (403–621)p (21) (27) was expressed from pET24d; His tag (C); made in house; host or cells: E. coli Rosetta (DE3) pLysS, vector pET24d", "T1 sequence (Q02724 403-621)": "B5 chain", "test": "In vitro cleavage of purified SUMO fusion proteins by SUMO hydrolase Ulp1", "type": "biochemical, yeast", "details": "for In vitro cleavage by Ulp1 / SUMO hydrolase: purified fusion protein from E. coli"}, "[4]": {"target": "T2, Ulp1 Hydrolase (Saccharomyces cerevisiae, UniProt Q02724)", "T2 construct": "C-terminal His-tagged SUMO hydrolase/protease Ulp (403–621)p (21) (27) was expressed from pET24d; His tag (C); made in house; host or cells: E. coli Rosetta (DE3) pLysS, vector pET24d", "T2 sequence (Q02724 403-621)": "B5 chain", "test": "In vitro Ulp1 cleavage of His6SUMO-GFP under various additives/conditions", "type": "biochemical, yeast", "details": "4 to 37° C.", "protocol": "Ni-NTA purified His6SUMO-GFP was incubated with Ulp1 under the indicated conditions for one hour at room temperature unless indicated otherwise. Low molecular weight markers (LMW) are also provided.\nNi-NTA purified His6SUMO-GFP was incubated with Ulp1 and 10 mM of various protease inhibitors for 1 hour at room temperature. Lane markers: Norm is addition of Ulp1 and N-ethymaleimide (NEM) to the substrate at the same time, Pre is the incubation of Ulp1 with NEM prior to the addition of substrate, +Ve is the absence of any inhibitor, −Ve is in the absence of Ulp1, lane 1 is with E-64, lane 2 is with EDTA, lane 3 is with leupeptin, lane 4 is with NEM, lane 5 is with pepstatin, lane 6 is with TLCK. Low molecular weight markers (LMW) are also provided.\nThe effects of various additives/conditions and temperature upon the in vitro cleavage reaction were determined as follows: His6smt3MeGFP was expressed from pET24d in Rosetta (DE3) pLysS (Novagen). The recombinant protein was purified as before using Ni-NTA agarose (Qiagen) and then buffer exchanged into 20 mM Tris-HCl pH 8.0, 150 mM NaCl and 5 mM β-mercaptoethanol using a PD-10 column (AP Biotech). […]"}},
  "note": "Entries after “also recorded” stand apart in the source; their conditions may differ.",
  "data": [
    {"molecule": "B1", "values": [
      {"measurement": "GFP fluorescence of soluble fraction (correct folding)", "setting": "[1]", "result": "able to fluoresce"},
      {"measurement": "Solubility of UBL-GFP fusion (soluble panel of stained gel)", "setting": "[2]; 37° C., FIG. 4A", "result": "able to solublize the GFP"}
    ]},
    {"molecule": "B2", "values": [
      {"measurement": "In vitro cleavage by SUMO hydrolase after addition of urea", "setting": "[3]; 2M urea, 20 min at room temperature", "result": "complete cleavage"},
      {"measurement": "In vitro cleavage by Ulp1 / SUMO hydrolase", "setting": "[3]", "result": "partially resistant to cleavage"}
    ]},
    {"molecule": "B3", "values": [
      {"measurement": "Fraction of protein solublized by SUMO fusion", "setting": "[2]; induced at 20° C.", "result": "about 40%"},
      {"measurement": "Solubility of fusion protein", "setting": "[2]; induced at 37° C.", "result": "hardly any SUMO-LXR was soluble"}
    ]},
    {"molecule": "B4", "values": [
      {"measurement": "Soluble form as fusion to SUMO", "setting": "[2]; as summarised in Example III for FIG. 8", "result": 95, "unit": "%"},
      {"measurement": "Soluble fraction of fusion protein", "setting": "[2]; induced at 20° C. with 0.25 mM IPTG", "result": 90, "unit": "%"},
      {"measurement": "Insoluble fraction of fusion protein", "setting": "[2]; induction at 37° C.", "result": "more than 50%"},
      {"measurement": "In vitro cleavage by Ulp1 / SUMO hydrolase", "setting": "[3]", "result": "efficiently cleaved"}
    ]},
    {"molecule": "B5", "values": [
      {"measurement": "Effect of temperature on Ulp1 hydrolase activity", "setting": "[4]", "result": "extremely active at 37 °C as well as at 4 °C; also recorded: Ulp1 is active over a broad range of temperatures,"}
    ]}
  ]
}
